Measured values published in article PMC8322407 (Communications Biology, 2021).
Blank lines part the entries; values can stand above or below the binder they belong to.

What was measured:
[1] = target: the molecule itself; experiment: cryo-EM structure; hArg1 and full-length mAb mixed at 3:1 molar ratio in 25 mM HEPES pH 7.4, 150 mM NaCl, 1.0 mM MnCl2, incubated 30 min; diluted to ~75 uM monomeric arginase, DDM added to the CMC
[2] = target: T1, Human Arginase 1 (hArg1), trimeric (human, UniProt P05089); experiment: enzyme inhibition kinetics; Thioarginine to thioornithine assay; 1 nM human or mouse arginase incubated 30 min at room temperature with fixed antibody concentrations, variable thioarginine; 50 mM Tris pH 7.5, 50 mM NaCl, 1 mM Mn chloride, 0.05% BSA; competitive inhibition model; settings: both partners purified
T1 construct: Human arginase 1, full-length, untagged; trimeric metalloenzyme, each monomer ~35 kDa; buffers contained MnCl2 (the SPR buffer contained 3 mM EDTA); also called trimeric hArg1; human Arg1; source: E. coli BL21 (DE3), purified (heat treatment, HiTrap-SP, Superdex 200)

[3] = target: T1, Human Arginase 1 (hArg1), trimeric; experiment: cryo-EM structure; hArg1 and full-length mAb mixed at 3:1 molar ratio in 25 mM HEPES pH 7.4, 150 mM NaCl, 1.0 mM MnCl2, incubated 30 min; diluted to ~75 uM monomeric arginase, DDM added to the CMC; settings: both partners purified
[4] = target: T2, mouse Arg1 (Mus musculus (Mouse)., UniProt Q61176); experiment: enzyme inhibition kinetics; Thioarginine to thioornithine assay; 1 nM human or mouse arginase incubated 30 min at room temperature with fixed antibody concentrations, variable thioarginine; 50 mM Tris pH 7.5, 50 mM NaCl, 1 mM Mn chloride, 0.05% BSA; competitive inhibition model; settings: both partners purified
T2 construct: Mouse arginase 1; construct not described; also called mouse arginase

[5] = target: T3, Monomeric hArg1 (Arg308 mutated to alanine) (Homo sapiens (Human)., UniProt P05089, Arg308 to an alanine residue); experiment: SPR; Antibody captured on an anti-mouse IgG or anti-human Fc surface (CM5 chip, Biacore T200 or 4000); human ARG1 injected, twofold dilutions from 100 nM; 10 mM HEPES, 150 mM NaCl, 0.05% P20, 3 mM EDTA, pH 7.4; 25 °C; 1:1 binding model; settings: both partners purified
T3 construct: Human arginase 1 with Arg308 at the monomer interface mutated to alanine, which gives a monomer; also called monomeric human ARG1

[6] = target: T1, Human Arginase 1 (hArg1), trimeric; experiment: as above; settings: both partners purified

T2 sequence (Q61176 whole entry): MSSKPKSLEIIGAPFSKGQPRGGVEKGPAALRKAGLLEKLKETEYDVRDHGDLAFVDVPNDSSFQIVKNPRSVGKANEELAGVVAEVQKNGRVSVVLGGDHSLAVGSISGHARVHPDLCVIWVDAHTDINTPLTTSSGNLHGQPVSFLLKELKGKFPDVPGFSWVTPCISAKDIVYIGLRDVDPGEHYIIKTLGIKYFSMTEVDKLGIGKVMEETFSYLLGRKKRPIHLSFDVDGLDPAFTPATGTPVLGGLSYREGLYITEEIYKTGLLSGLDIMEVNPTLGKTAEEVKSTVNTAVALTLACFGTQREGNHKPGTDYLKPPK

B1: Human Arginase 1 (hArg1), trimeric (enzyme, UniProt P05089 1-322, looked up)
chain: MSAKSRTIGIIGAPFSKGQPRGGVEEGPTVLRKAGLLEKLKEQECDVKDYGDLPFADIPNDSPFQIVKNPRSVGKASEQLAGKVAEVKKNGRISLVLGGDHSLAIGSISGHARVHPDLGVIWVDAHTDINTPLTTTSGNLHGQPVSFLLKELKGKIPDVPGFSWVTPCISAKDIVYIGLRDVDPGEHYILKTLGIKYFSMTEVDRLGIGKVMEETLSYLLGRKKRPIHLSFDVDGLDPSFTPATGTPVVGGLTYREGLYITEEIYKTGLLSGLDIMEVNPSLGKTPEEVTRTVNTAVAITLACFGLAREGNHKPIDYLNPPK
notes: Human arginase 1, full-length, untagged; trimeric metalloenzyme, each monomer ~35 kDa; buffers contained MnCl2 (the SPR buffer contained 3 mM EDTA); also called trimeric hArg1; human Arg1; source: E. coli BL21 (DE3), purified (heat treatment, HiTrap-SP, Superdex 200)
stoichiometry N [1]: 3

B2: mAb1 (antibody, V domains shown)
VH: QVQLVQSGAEVKKPGASVKVSCKASGYTFTNYGISWVRQAPGQGLEWMGWISAYNGNTNYAQKLQGRVTMTTDTSTSTAYMELRSLRSDDTAVYYCAREGAYGYRSPYHNWFDPWGQGTLVTVSS
VL: EIVMTQSPATLSLSPGERATLSCRASQSVSSYLAWYQQKPGQAPRLLIYDASNRATGIPARFSGSGSGTDFTLTISSLEPEDFAVYYCQQHSLLPRTFGGGTKVEIK
notes: Human heavy chain variable domain from yeast display; heavy chain of the Fab in PDB 7LEX and 7LEZ; Mouse IgG2a heavy chain constant region (backbone); Human light chain variable domain from yeast display; light chain of the Fab in PDB 7LEX and 7LEZ; Mouse kappa light chain constant region (mouse IgG2a/kappa backbone); Full-length mAb, human variable regions on a mouse IgG2a/kappa backbone; The Fc …
Ki [2]: 3.3 ± 0.3 nM

B4: mAb5 (antibody, V domains shown)
VH: EVQLVESGGGVVRPGGSLRLSCAASGFTFDDYGMTWVRQAPGKGLEWVSGINWNGGSTGYADSVKGRFTISRDNAKNSLYLQMNSLRAEDTALYHCARDRRRGSYGSDAFDIWGQGTMVTVSS
VL: DIQMTQSPSSLSASVGDRVTITCRASQGISNYLAWYQQKPGKVPQLLISAASTLQSGVPSRFSGSGSGTDFTLTISSLQPEDVATYYCQKYNSAPRTFGQGTKVEIK
notes: Human heavy chain variable domain from a transgenic (Trianni) mouse immunization; heavy chain of the Fab in PDB 7LEY; Human light chain variable domain from a transgenic (Trianni) mouse immunization; light chain of the Fab in PDB 7LEY; Mouse kappa light chain constant region (mouse IgG1 D265A/kappa backbone); Full-length mAb, human variable regions on a mouse IgG1 D265A/kappa backbone; source: …
binding result [3]: binds
Ki [4]: 25 ± 1.7 nM

Results, then the binder that gave them:

Ki [2]: 5.3 ± 0.8 nM
B3: mAb2 (antibody, V domains shown)
VH: QVQLVQSGAEVKKPGASVKVSCKASGYTFTNYGISWVRQAPGQGLEWMGWISAYNGNTNYAQKLQGRVTMTTDTSTSTAYMELRSLRSDDTAVYYCAREGAYGYRSPYHNWFDPWGQGTLVTVSS
VL: EIVMTQSPATLSLSPGERATLSCRASQSVSSYLAWYQQKPGQAPRLLIYDASNRATGIPARFSGSGSGTDFTLTISSLEPEDFAVYYCQQHSLLPRTFGGGTKVEIK
notes: Human heavy chain variable domain, identical to that of m3 (mAb1); heavy chain of the Fab in PDB 7LF0; Human light chain variable domain, identical to that of m3 (mAb1); light chain of the Fab in PDB 7LF0; Mouse kappa light chain constant region (mouse IgG1 D265A/kappa backbone); Full-length mAb; differs from mAb1 only in the constant domains; also called mAbs1-3 (member); source: ExpiCHO-S, …

Kd [5]: 20 nM
Kd [6]: 0.56 nM
B5: mAb4 (antibody, V domains shown)
VH: EVQLVQSGAEVKKPGASVKVSCKASGYTFTDYYMNWVRQAPGQGLEWIGVISPYNGGTTYNQKFKGKATLTVDKSTSTAYMELSSLRSEDTAVYYCVYDLYYFDYWGQGTLVTVSS
VL: EIVLTQSPATLSLSPGERATLSCRASQRISNDLHWYQQKPGQAPRLLIKYASQSISGIPSRFSGSGSGTDFTLTISSLEPEDFAVYYCQQSNSWPRTFGGGTKLEIK
